This is an account of results in paper PMC7160950, “Identification and analysis of KLF13 variants in patients with congenital heart disease” (BMC Medical Genetics, 2020).

The assay deals with Kruppel-like factor 13 (KLF13), wild type, myc-tagged (human, UniProt Q9Y2Y9 1-288). As to the kind of experiment: cell-based or functional assay.
Chain of Kruppel-like factor 13 (KLF13), wild type, myc-tagged (Q9Y2Y9 whole entry): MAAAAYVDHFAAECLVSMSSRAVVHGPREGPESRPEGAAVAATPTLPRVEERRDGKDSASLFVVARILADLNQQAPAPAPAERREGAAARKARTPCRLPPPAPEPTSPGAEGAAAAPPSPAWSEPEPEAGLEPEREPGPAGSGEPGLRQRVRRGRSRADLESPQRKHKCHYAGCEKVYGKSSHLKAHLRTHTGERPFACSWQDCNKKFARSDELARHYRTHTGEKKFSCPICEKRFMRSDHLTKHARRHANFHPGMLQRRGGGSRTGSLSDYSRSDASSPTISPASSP

B1: TBX5 (natural protein, UniProt Q99593 1-518, looked up)
chain: MADADEGFGLAHTPLEPDAKDLPCDSKPESALGAPSKSPSSPQAAFTQQGMEGIKVFLHERELWLKFHEVGTEMIITKAGRRMFPSYKVKVTGLNPKTKYILLMDIVPADDHRYKFADNKWSVTGKAEPAMPGRLYVHPDSPATGAHWMRQLVSFQKLKLTNNHLDPFGHIILNSMHKYQPRLHIVKADENNGFGSKNTAFCTHVFPETAFIAVTSYQNHKITQLKIENNPFAKGFRGSDDMELHRMSRMQSKEYPVVPRSTVRQKVASNHSPFSSESRALSTSSNLGSQYQCENGVSGPSQDLLPPPNPYPLPQEHSQIYHCTKRKEEECSTTDHPYKKPYMETSPSEEDSFYRSSYPQQQGLGASYRTESAQRQACMYASSAPPSEPVPSLEDISCNTWPSMPSYSSCTVTTVQPMDRLPYQHFSAHFTSGPLVPRLAGMANHGSPQLGEGMFQHQTSVAHQPVVRQCGPQTGLQSPGTLQPPEFLYSHGVPRTLSPHQYHSVHGVGMVPEWSDNS
On to B1, for which the “BNP-luciferase reporter activation in NIH 3 T3 cells cotransfected with KLF13 and TBX5” value was ≤ 75 fold.
